Results on two molecules are retold here after patent US5980890A, “Purification and characterization of alkaline phosphates from Thermotoga neapolitana” (Michigan State University, priority 1997, dated 1999).

Data set [1] deals with T1, Thermotoga neapolitana (DSM 5068) alkaline phosphatase, purified native enzyme (Thermotoga neapolitana, UniProt B9K6X5).
T1 sequence (B9K6X5 23-436): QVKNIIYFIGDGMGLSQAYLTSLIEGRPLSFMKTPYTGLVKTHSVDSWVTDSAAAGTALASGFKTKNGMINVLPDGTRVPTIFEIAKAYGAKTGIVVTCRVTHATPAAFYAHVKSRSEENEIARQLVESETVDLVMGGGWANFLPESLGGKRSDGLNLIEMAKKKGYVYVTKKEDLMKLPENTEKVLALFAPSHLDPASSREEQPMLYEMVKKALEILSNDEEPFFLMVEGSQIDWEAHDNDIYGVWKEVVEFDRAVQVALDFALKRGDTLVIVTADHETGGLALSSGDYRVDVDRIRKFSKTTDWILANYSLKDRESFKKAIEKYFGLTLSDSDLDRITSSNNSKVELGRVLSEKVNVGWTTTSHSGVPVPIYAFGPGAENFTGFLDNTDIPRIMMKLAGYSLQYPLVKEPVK
The data set is described as follows: biochemical. As to conditions: 1 h, read-out: original activity detected after exhaustive treatment with EDTA.

Substrate in data set [2]: O=[N+]([O-])c1ccc(OP(=O)(O)O)cc1
Briefly: purified protein, by the assay type. As to conditions: other: p-nitrophenyl phosphate as substrate, optimal temperature and pH conditions (85° C., pH 9.9).

Where a name gives a salt, the structure may show the parent alone.

In the case of `O=C(O)CN(CCN(CC(=O)O)CC(=O)O)CC(=O)O` [EDTA, Ethylenediamine tetraacetic acid disodium salt], the activity at 10000 µM in data set [1] was approximately 5%.

B1: Thermotoga neapolitana (DSM 5068) alkaline phosphatase, purified native enzyme (Thermotoga neapolitana DSM 4359) (protein)
chain: T1 sequence (B9K6X5 23-436)
As a reminder, the Km is the substrate concentration at which the rate is half of its maximum. For the molecule B1, in data set [2], the Michaelis constant (Km) is 183 µM and the Vmax is recorded as 1352 U/mg.
